For experiment [1], the target named is CHS-syfp2 fusion (Arabidopsis) (UniProt P13114). The experiment in a line: FRET or BRET; frequency domain FLIM-FRET in Arabidopsis tt4-11 mesophyll protoplasts; donor MOS9-scfp3a, acceptor SYFP2 fusions; E from phase-shift lifetimes. On the technique in general: BRET reads energy transfer from a luciferase to a nearby fluorophore.
Experiment [2] concerns the target T1, recombinant chalcone synthase (CHS) (Arabidopsis, UniProt P13114 1-395).
T1 construct: chalcone synthase (CHS), Arabidopsis, At5g13930; The construct for recombinant CHS is not described; earlier work of the same laboratory may hold it (possibly with a carrier protein); also called recombinant CHS; source: E. coli BL21 (DE3) pLysS, purified (nickel column, FPLC)
T1 sequence (looked up): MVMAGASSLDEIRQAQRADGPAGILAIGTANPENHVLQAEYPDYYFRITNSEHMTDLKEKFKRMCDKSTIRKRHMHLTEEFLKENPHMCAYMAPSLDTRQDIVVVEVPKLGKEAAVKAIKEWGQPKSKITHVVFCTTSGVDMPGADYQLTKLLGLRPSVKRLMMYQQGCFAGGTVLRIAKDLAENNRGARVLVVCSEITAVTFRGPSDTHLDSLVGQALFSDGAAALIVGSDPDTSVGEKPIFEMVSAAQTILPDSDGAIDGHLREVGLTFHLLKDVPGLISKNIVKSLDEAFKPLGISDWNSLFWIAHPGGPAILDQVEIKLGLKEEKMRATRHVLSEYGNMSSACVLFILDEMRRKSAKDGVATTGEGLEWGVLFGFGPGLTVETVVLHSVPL
The experiment can be described thus: SPR; CHS immobilised by amine coupling on a planar PEG/carboxyl chip (Reichert SR7000); MOS9 0.1-1 uM flowed over in 10 mM HEPES pH 7.5, 150 mM NaCl, 1 mg/ml BSA, 50 ul/min; KD from Koff/Kon. Particulars: both partners purified.

Turning to MOS9-scfp3a fusion (natural protein), the FRET efficiency E τ(φ) in experiment [1] was found to be 6.5%.

B1: MOS9::V5::6xHis recombinant protein (natural protein, Arabidopsis, UniProt F4IDT4 1-193, looked up)
chain: MMGMARKISKEEVVEKLKDDGDFDRLRLKIIRRLKENEDLRNNMISVVKESTSLKRHGAQNMKTRQLSDAIFEEVGSKMLSQLSDGLWGIIRSEDGMKNEIRETVQSVYATLSNPRGEKRGTSAREMEHKIPTPKKEARTDFNTSPASKQKQELIKGAVEDNKGEACSDDVQDNKGEAYNDDEEDPELPPGFG
notes: MOS9, Arabidopsis, At1g12530, coding region minus the stop codon (193 amino acids), from clone pENTR221-AT1G12530, recombined into pET-DEST42; Gateway recombination leaves linker residues between MOS9 and the tags; also called At1g12530 protein; recombinant protein generated in E. coli from At1g12530 cDNA; source: E. coli BL21 (DE3) pLysS, purified (nickel column, FPLC); not shown: V5, …
One may read the Kd as the free concentration of one partner at which half of the binding sites on the other are occupied at equilibrium, for simple one-to-one binding. For B1, in experiment [2], the Kd came out at 210 nM.

For the origin of these results see publication PMC6151112, “Identification of MOS9 as an interaction partner for chalcone synthase in the nucleus” (PeerJ, 2018).
